Experimental data reported in the DeepSol protein solubility set.

experiment: soluble on expression in E. coli; label from the status in PepcDB or PDB records

Soluble on expression in E. coli, not soluble:
MGSDKIHHHHHHMKIMVSEQFQCFMASLGVDLNSLLEAAGINKVVWQEQLMLSDVEYWQLMNEFDNQLTDEMILSLGNITNINTFMPSFFAALAAKNGEQAIARMATYKSLAGPVHLEIVTKPDIVNIHILGNSLGVELPRFTIMTEQLLLISLLRVGTGKLIKPISVGSKYPYGDQIDAVMGIRPQQLADNCIQFQVTDLQRAFISANNSMWAFLQPGLDQQKLAIEHNQSLLATVQALLLKKIPSGSFSIDEIATSLNLSKRTLQRHLSTLSTTFNDEVQIARRTLVVPLMKDQSLNLIEISYLLGYSDPESFSRAFKKWFHQSPSVYRQQSLGMFKN
MGSDKIHHHHHHMKIQEVKRILTRWQPSSFSLYREVFTQYGGSINMHPDIVDYFMKRYNWHFKFFHYKEDDKIKGAYFICNDQNIGILTRRTFPLSSDEILIPMAPDLRCFLPDRTNRLSALHQPQIRNAIWKLARKKQNCLVKETFSSKFEKTRRNEYQRFLKKGGSVKSVADCSSDELTHIFIELFRSRFGNTSSCYPADNLANFFSQLHHLLFGHILYIEGIPCAFDIVLKSESQMNIYFDVSNGAIKNECRPLSPGSILMWLNISRARHYCQERQKKLLFSIGILKPEWEYKRMWSTPYFTGKSIC
MGSDKIHHHHHHMKISPLCPSCLLGRVYYEAKLVTDDEDLISQCVDESLKILAENYSSAPINAHLATRIHRRVYEILGVEDPYAEVKARANEVARQVLPLAKEIVEGSDDPFKTAVIVSIVGNNFDYGVQGHKVVEEEFRDFLKRKVQEGLKINDTERIKELSSGKVVYLTDNAGEIFFDTLLMKEIKRRCEKLTAVVRGRPIISDATIEDARLARVDKIADELLTNGKGAIGIIMDELPDETRKALEEADLIVAKGMANYECLSDGSLKPIAFLLTAKCEPVARDIGVNVGDMVAKVVE
MGSDKIHHHHHHMKISTHELIAVVSQFNPWWRGESIQDLPTWHRAAYQELELWLIKPPVPRAIFLSGARQIGKTTLLLQAIDKLLKEGVKPGNILYVTFDHPLIKMSDIDAVLEAWREREPKTGDLEYIFIDEAQFMRSWGTWIKHQVDFSKSRRIFFTGSATPIIEADQESGVGRWHTIRLTTLSFYEYLQIKKIDLPQLPTVKTLRELFEWPQQEFYKVKELAVHYVGHFHEYLLRGGFPQTAQVENITQAQRLLREDIIDKVLKRDMTALFGVRRILELEQTFLYLCMHDGGLLDMTDLCSNLEVKRPTIQNYIFLLEATNLIYRLPPFGYGKDILRAKYKIYLADAAIAPAVLLKDKSILDDPESLGIATETAVFKHLFARYYSQNVRFSYWRGTKDHEVDVVAQIGDQIIPFEVKYRSQHTNAKALKGLLELCKKKSIAHGYVVTKSLDDFGIMKALPEIKTNIMQIPAPLLCYWMGESELRQTFGV
MGSDKIHHHHHHMKITPIAFESLGVRSQATLIETKDLRVLVDPAVSLAPRRYNLPPHQREVDRLTQLAKVLVDVAKDVDVIVVSHYHYDHHDPGYVIPTDIYKNKIVFLKDPQNMINNSQKYRRAPRFLRSIKDKPRKIEIADGKTFEFNTTTISFSPAVPHGADERLGYVIQVAISDKDSTVIFTSDIEGAPKDVHLKFTKEKMPTVIIIDGPLSYLLGRALKEEELENSIRNMEEIIKNGLETVIIDHHVLRDINYAQVLKPVHDIAKDLGVRVTTAAEYLNLEPLILEARRKELYKEDNRPAKIPRGLANLLNAGDG
MGSDKIHHHHHHMKIVYCIAGTYNSGGMERVLANKANYLVSHGYEVVIITTDQREKQSFFELDQRINCCDLRINYEENNGKSFLNKLANYPFKQWKHRKRLTACLKQLKADIVVSMFCNDASFLWKIDDGSKKVLEIHFSRYKRLQYGRKGVWKIADRWRSRMDERTVRKYDRFVVLTAEDKAYWGNLSNMIVIPNALSHSTTELHLSPLTARKVIAIGRYGYQKGFDYLIEAWEIIHCAQPAWTLDIIGDGEWTDRLQRQIKRKRLNHCVFLKPPTGQIEEEYRQASLLVLSSRYEGLPMVLLEAQSFGLPIVSFACKCGPGDVITDGKNGFLVSVGNLPMLADRIMRLMEDEGLRKRMGMNAYHNSKTFSEERIMQCWIDMFDKLVSQR
MGSDKIHHHHHHMKKEADMIHPIANAPCSWGVDDPKNPNLPAWATVLKEAAQAGYRSIELGPWGYLPSDPASLRAALEQHQLSLVAGTIFDDLVSEAHFPTLVALTHQICRNLSQVAAAEPIPGRPFQPPYLVIIDFGNPERARFAGRGALAPRLNDKDWQRMMEHIIALSTLAWQEYGVRAVIHPHAGGSIEFADEIERLANDIPHDVAGLCLDTGHLYYAGMDPLDWLDRYYHRLDYLHFKDVDPQVYQRAIHEGIDFFTACAEGVMCPLGSGAIDYPAIKDFLARRGYQGWITIEQERDPRHAAGSLQAVTESLRYLRDVGF
MGSDKIHHHHHHMKKHSPIGCISKAGLFSKLPHKMLEKIAPISTHQEYFEKGSFIRQPGDGKNGMMFVDKGSAKIYNLNRDGKETVLGVLNKGDYDGQQNLFQDDSHENFIQALQDTYICSISRADFQRLLKDTPDLTLNLLNNFGEKLVAIETNSVRRNSMNAKDRLMDYLVEQSQKNGATKFTLPLKKKDLASYLGTSPETLSRQLKSLEKEGKIKVNRREITIVKD
MGSDKIHHHHHHMKKILIVTRTFGKYSQEPVEFLRKEGFEIIRSDTIDPDILKEVDALIVGTHPVTAEMVENSSLKIIAKHGVGVDNIDLEAATKKGIPVTITAGANSLSVAELTIAFIFALSRGLVWAHNKLFLERRWEGTVGQEVSGKTLGVVGFGSIGREVVKKAVCLGMNVLVYDPYVSKDSVRLLEATPVDDLEQLLKESDFVSLHVPLNESTKNMIGERELSLMKKSAFLINTSRGELVDEEALVKALKEGRIAGAALDVFSEEPPDANSPLFECPNLITTAHIGAHTKEAIFRMNMMAAQSIVDFFKGRIPRYVVNKEVIRILKEKGYQEIS
MGSDKIHHHHHHMKKPFLHSESAADVGMEIQQSYDRLLETTRKWIDILHFDPLLETGLTPRDIVWRKNKSRLYRYVNHKGYKHRTPILMLYALINKAYILDLRPGMSLVEYLVDQGFDVYLLDWGEFDWEDRDLSFSQLIVDYISRAVYKVCQYSNVNELSILGYCMGGTMATMYASLYPQPRIKNMIYVAAPIDFEDAGLSSIWLKASVFDVDKVTDTFSLIPKEFVDLGLKMLNPVNNFVATYTRLWKAIDEGVSIEAWKALNKWVDDNINFPGKAYREWVKYLYQENALVKDEFIINGRKVVLSNIDAALLVLTGKTDHIVLPQQSTPILELSSSQDKTNLQYPVGHGGLVFGSRARNEVYPTIAEWLAQRS
MGSDKIHHHHHHMKLADIYAHFQEDIFTIERELEEAVQARHDILRKASVHLLKAGGKRIRPVFVLLAGKFGTYDVNVLKHIAVPLELIHMASLVHDDVIDDADLRRGKKTIKSQWDNRIAMYTGDYMFAKAVQTATYFDDPNIHQIISNAINEMCLGEVEQIRDQYNPNQHLRIYFRRIKRKTALLIAVSCQLGALAAKADPAIVQKLYYFGYYVGMSFQITDDVLDFVGTEEQLGKPAGSDLLQGNVTLPALYALHHDMHAKRLIEQVLADRGNNSVHMEEVIAAIVSSGGIDYALSISDLYLKKAMRMLDHLPDDEPKQFLQEIANYIGRRKF
MGSDKIHHHHHHMKLDPTSPSLNIMLANPRGFCAGVDRAISIVERALELFSPPIYVRHEVVHNRYVVQNLKDRGAVFVEELDQVPDNNIVIFSAHGVSQAVRQEAKARGLRVFDATCPLVTKVHLQVTRASRKGIECILIGHEGHPEVEGTMGQYDNPNGGVYLIESPADVDALEVRDPNNLCFVTQTTLSVDDTLDIIAALQKRFPSIEGPRKDDICYATQNRQDAVRNLSADVDLLIVVGSKNSSNSNRLRELALKTGTQSYLVDTADDVESSWFDNVSRVAVTAGASAPEVLVQQVVQAIAKLAPSVVTEVEGRKEDTVFAVPAELR
MGSDKIHHHHHHMKLFRPVDGRPNSGSSCILRSYYIIMAYMSMPIASQRQEKDMTEDIRSRIGLRPVINVSGTMTSLGASIVVPEAVEAMAAILPQFVEINDLQRKASAIIARLTGGEAGFVTASCSSGISLAVAGAITGNNLLAIEKLPDIAPEKNEVLVQMGHVVSYGAPVDQAIRLGGGKVVLVGQATSTHRYHMENAITEKTAAAVYVVSHHVVDYGLLHLSEFVEIAHAKGVPVIVDAASEYDLELFLATGADVVLYSGHKFLGGPTSGIVAGSKELVRHAFLQNMGIGRGMKVGKESIYGVMAALEAWEKRDHAGIRERETGYLNLWKKTLDGRPGVTALIEPDPTNNPLDRMRVIIDADEAHITAWDLTTALARGNPPIITRDHEVEHRYFYLDPCNLHPGQETIVASRLAEELDKARASNEMIATPFEDRSRHRFDGMLCWPD
MGSDKIHHHHHHMKLIWLGHGGFRLETGETTLLIDPWLTGNPMLEDSQHDAATQGATHILLTHAHFDHVADVLELAKHLSVPIVGQYDLMGYWGETEGVQTVGFNKGGTVTVGDTRVSMVPASHSNTFSTRDGLRTAGSEVGYMIRAEGKTLYVSGDTDIMADMDWMGDYYKPEIGILSAGGHFTMDMKAAAYAAQRYFAFKTVIPCHYRTFPLLEQSAQDLIDGLPGVNVIEPQIMKDIEL
MGSDKIHHHHHHMKLNLRSLEAFRETMLSGSATAAAGRMGLTQPAVSRLIAQLEQEVGFELFYRERGRLSPTPEALIIYDEIDLAFGGLERVDALARDIAAFNTGLLKIVAPPSLSESVLSTILPRFMARFPKVRIAIESRSTATARAMVANRTVDCGFVKLPLDRSDISTVTLSTSETVCVLPDTHPLTAHEVLTPELLRGEPLVLLGAGTWTRRQIDDAFRERGVRPDVRVETHTVGSACALAAGGLGVAIVNALLADNFARPGVAIRVFRPQILHEYAFMTSALAPMNRLAAAFLEEAQTFFREQAR
MGSDKIHHHHHHMKLPRFGVEEWLNVHEKNATYDIAGVSIAALSLEELFQLTQQDLNAFFQELGQKKMDYGWIEGSPQFKAEVCKLYKNIQAEQVLQTNGATGANMLALYALIEPEDHVISMYPTYQQLYDIPKSLGAQVDLWQIKEDSKWLPDLDELRQLIRPNTKMICINNAHNPTGAIMDEAYLKELVAIVESCGAYILSDEVYKTFASDKNIPAIVDLYDKGISVDSLSKAYSLPGIRVGWVASNKKVTAVLRDYRDYTMICAGVFDDMLASFALKHRQAIIQRNQEIVVDNLQILQDWLAKEPRAQAILPDHVSTSLIKLNVPMLIETFCLKLLSDYGVLVVPGNRFDIEGHVRLGYCGDTEILKAGLTRLSQCLRQFDEQAKIT
MGSDKIHHHHHHMKLRYIFYGLTSGLLFGLSSCSLNYDPIDTYSDVTEGVTDTGTKVVFKDKAAVESHLTTIYNQMRDRQEHWYVDLLLISDSHADNAYAGTTGAEVLPFENNSIEGSNSVLERDWNRYLEDVARANKLICNIDLVTDNSLTTAERAQYKAEAMIFRAMVMFDMVRLWGDFPVITTVADDITSENIEDVYEQYFPAQNTELEAYQQIEKDLLAAIQHAPDNTAGNKTLFTKSVARTLLAKIYAEKPLRDYSKVIRYCDEVKADGFELVKDFSDLFGMNAAGTDAKARNTKESILEAQFTPGSGNWCTWMFGRDLVNWNNNFTWAKWVTPSRDLINAFKKEGDQIRFQESVVYYDCNWSNYYPSDNYPFMYKCRSANSSIIKYRYADVLLLKAEALIMQDTPDLEAAAKIIDEVRERAGLGELSSSVRKDRDAMITALLNERRLELAFEGQRWFDLVRLDKVEEVMNAVYAKDSGRKSQVYAFDKNSYRLPIPQSVIDANDKIEQNPGY
